Columns and labels:
[1] = biological target: spike protein of SARS-CoV-2 (Wuhan strain) on pseudovirus (SARS-CoV-2 (Wuhan strain), UniProt P0DTC2 14-1254); assay: cell-based or functional assay
[2] = biological target: T1, RBD derived from SARS-CoV-2 (Wuhan strain) (SARS-CoV-2 (Wuhan strain), UniProt P0DTC2 319-541); assay: BLI (Octet), RBD of the Wuhan strain
T1 construct: domain: RBD

[3] = biological target: T2, full-length spike protein of SARS-CoV-2 (Wuhan strain) (SARS-CoV-2 (Wuhan strain), UniProt P0DTC2 14-1273); assay: ACE2 competition, 293T cells, antibody 4 µg/mL
T2 construct: whole, on cells; Expressed in 293T cells

[4] = biological target: T2, full-length spike protein of SARS-CoV-2 …; assay: ACE2 competition, spike on 293T cells, antibody 4 µg/mL
[5] = biological target: T1, RBD derived from SARS-CoV-2 (Wuhan …); assay: RBD beads, antibody 1 µg/mL, then labelled ACE2, flow cytometry
[6] = biological target: T1, RBD derived from SARS-CoV-2 (Wuhan …); assay: RBD beads, antibody 4 µg/mL, then labelled ACE2, flow cytometry
[7] = biological target: T1, RBD derived from SARS-CoV-2 (Wuhan …); assay: RBD beads, antibody 0.25 µg/mL, then labelled ACE2, flow cytometry

Row | Binder | IC50 of pseudovirus infection (luciferase) [1] [µg/mL] | Kd [2] [nM] | ACE2 binding (no antibody = 100) [3] | binding amount (%) of ACE2 protein [4] [%] | fluorescence of ACE2 protein [5] | fluorescence of ACE2 protein [6] | fluorescence of ACE2 protein [7]
1 | Ab326 (antibody, V domains shown) VH: EVQLVESGGGVVQPGRSLRLSCAASGFTFSHYPMHWVRQAPGRGLEWVAVISYDGSNQHYVDSVKGRFTISRDNSKNTLYLQMNSLRAEDTAVYFCASLITMIRGVPDYWGQGTLVTVSS VL: DIQMTQSPSSLSASVGDRVTITCRASQSISNYLNWYQQKPGKAPNLLIFAASSLQSGVPSRFSGSGSGTEFTLTISSLQPEDFAAYYCLQTYSTPRTFGQGTRLEIK | 0.031 | 0.0514 | 0.2 | 0.2 | 39.9 | 38.4 | 516
2 | Ab354 (antibody, V domains shown) VH: QVQLVQSGAEVKKPGASVTVSCKASGFLFTGYYMHWVRQAPGQGLEWMGWINPNSGASNYTRKFQGRVTMTRDTSISATYMKLSRLTSDDTAVYYCARDLAFSMVRGALDYWGQGTLVTVSS VL: QLVLTQPPSASGSPGQSVTISCTGTSSDVGGYNYVSWYQHHPGKAPKLMIYEVSKRPSGVPDRFSGSKSGNTASLTVSGLQAEDEADYYCNSYAGNNNWVFGTGTKVTVL | 0.0559 | 0.0726 | 0.3 | 0.3 | 64.8 | 42.9 | 409
3 | Ab308 (antibody, V domains shown) VH: EVQLVQSGAEVKKPGSSVKVSCKASGGTFSSYAINWVRQAPGQGLEWMGRIIPMFGIANYAQKFQGRVTITANKSTSTAYMDLSSLRSEDTAVYYCARSQYYYDSSGYYFDYWGQGTLVTVSS VL: not shown | – | 6.62 | 4.1 | 3.5 | 432 | 59 | 1390

— US20230348573A1 (KEIO UNIVERSITY, published 2023)
